In the experiment the target is T1, SARS‐CoV‐2 NSP3 SUD‐M domain (1356–1493), tag cleaved, for FP, P0DTD1.
T1 chain: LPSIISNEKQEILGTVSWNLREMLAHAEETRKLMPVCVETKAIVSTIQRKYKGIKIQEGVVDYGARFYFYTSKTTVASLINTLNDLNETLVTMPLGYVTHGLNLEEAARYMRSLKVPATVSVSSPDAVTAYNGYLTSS
Kind of experiment: fluorescence polarization (FP)-based affinity measurement. As to conditions: chain shown with the change;; read off a plot. For orientation: Polarisation of emitted light reports the rotation of a fluorescent probe.

For QFTEEELHFVLYGVTPY [PRDM14 wt peptide 196-211 D201E], the ratio to parent was 14 fold.

As to QFTEEDLMFVLYGVTPY [PRDM14 wt peptide 196-211 H203M], the ratio to parent is 5.6 fold.
